Data published in IntAct's records for PubMed 31175292.

B1: Signal transducer and activator of transcription 5B (Homo sapiens), P51692 (parent)
chain: MAVWIQAQQLQGEALHQMQALYGQHFPIEVRHYLSQWIESQAWDSVDLDNPQENIKATQLLEGLVQELQKKAEHQVGEDGFLLKIKLGHYATQLQNTYDRCPMELVRCIRHILYNEQRLVREANNGSSPAGSLADAMSQKHLQINQTFEELRLVTQDTENELKKLQQTQEYFIIQYQESLRIQAQFGPLAQLSPQERLSRETALQQKQVSLEAWLQREAQTLQQYRVELAEKHQKTLQLLRKQQTIILDDELIQWKRRQQLAGNGGPPEGSLDVLQSWCEKLAEIIWQNRQQIRRAEHLCQQLPIPGPVEEMLAEVNATITDIISALVTSTFIIEKQPPQVLKTQTKFAATVRLLVGGKLNVHMNPPQVKATIISEQQAKSLLKNENTRNDYSGEILNNCCVMEYHQATGTLSAHFRNMSLKRIKRSDRRGAESVTEEKFTILFESQFSVGGNELVFQVKTLSLPVVVIVHGSQDNNATATVLWDNAFAEPGRVPFAVPDKVLWPQLCEALNMKFKAEVQSNRGLTKENLVFLAQKLFNNSSSHLEDYSGLSVSWSQFNRENLPGRNYTFWQWFDGVMEVLKKHLKPHWNDGAILGFVNKQQAHDLLINKPDGTFLLRFSDSEIGGITIAWKFDSQERMFWNLMPFTTRDFSIRSLADRLGDLNYLIYVFPDRPKDEVYSKYYTPVPCESATAKAVDGYVKPQIKQVVPEFVNASADAGGGSATYMDQAPSPAVCPQAHYNMYPQNPDSVLDTDGDFDLEDTMDVARRVEELLGRPMDSQWIPHAQS

Variants of: B1
Conditions: with abl1_human ABL1, P00519
abl1_human ABL1, P00519, sequence (P00519 whole entry): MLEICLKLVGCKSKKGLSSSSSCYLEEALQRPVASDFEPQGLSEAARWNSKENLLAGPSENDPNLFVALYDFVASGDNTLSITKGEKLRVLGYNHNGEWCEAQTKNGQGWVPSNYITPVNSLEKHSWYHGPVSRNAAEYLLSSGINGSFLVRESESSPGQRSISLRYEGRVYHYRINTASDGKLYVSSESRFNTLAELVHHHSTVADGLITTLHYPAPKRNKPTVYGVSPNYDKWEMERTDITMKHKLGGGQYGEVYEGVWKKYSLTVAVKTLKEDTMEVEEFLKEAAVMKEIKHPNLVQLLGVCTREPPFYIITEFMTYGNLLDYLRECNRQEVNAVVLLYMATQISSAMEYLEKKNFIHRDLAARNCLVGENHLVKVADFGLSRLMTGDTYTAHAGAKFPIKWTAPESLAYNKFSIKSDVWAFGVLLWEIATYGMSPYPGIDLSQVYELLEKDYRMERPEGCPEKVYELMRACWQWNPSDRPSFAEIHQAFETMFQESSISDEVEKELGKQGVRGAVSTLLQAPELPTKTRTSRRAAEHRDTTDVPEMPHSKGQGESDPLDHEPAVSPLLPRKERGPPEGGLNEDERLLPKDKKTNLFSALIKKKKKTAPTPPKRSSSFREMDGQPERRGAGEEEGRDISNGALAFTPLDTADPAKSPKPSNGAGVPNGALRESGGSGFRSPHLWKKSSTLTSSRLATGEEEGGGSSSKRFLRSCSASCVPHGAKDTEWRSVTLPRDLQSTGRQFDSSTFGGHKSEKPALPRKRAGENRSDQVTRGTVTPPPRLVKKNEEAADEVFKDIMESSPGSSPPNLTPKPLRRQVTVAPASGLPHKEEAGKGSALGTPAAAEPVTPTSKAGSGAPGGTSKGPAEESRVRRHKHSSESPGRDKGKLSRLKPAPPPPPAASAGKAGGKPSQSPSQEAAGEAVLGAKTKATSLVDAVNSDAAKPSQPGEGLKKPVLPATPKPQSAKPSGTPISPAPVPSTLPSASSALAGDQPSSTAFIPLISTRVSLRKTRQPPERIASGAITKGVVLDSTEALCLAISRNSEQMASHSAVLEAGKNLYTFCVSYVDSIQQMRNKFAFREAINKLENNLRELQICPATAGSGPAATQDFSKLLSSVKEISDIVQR

effect of a mutation on the interaction	Variant
with no effect	N642H
